Reference: paper PMC6568020, “Elucidating the Hot Spot Residues of Quorum Sensing Peptidic Autoinducer PapR by Multiple Amino Acid Replacements” (Frontiers in Microbiology, 2019)
Entries after “also recorded” stand apart in the source; their conditions may differ. Where a SMILES comes first, the peptide text is derived from it. [ ]: non-standard residue; d: D form.

What was measured:
[1] = tested on: PlcR regulon (plcA promoter-lacZ fusion); assay: Competition studies of PapR7-derived peptides with endogenous PapR, β-galactosidase (lacZ reporter) assay; assay type: cell-based, B. thuringiensis 407 Cry- plcA'Z (Bt A'Z); conditions: Bt A'Z; for reduction of plcA'Z activity: 2.5 μM peptide, added at late-exponential phase (OD600 1.8 ± 0.1), normalized to untreated cells, mean; for reduction of plcA'Z activity / effect on plcA'Z activation / PlcR regulon activity after 24 h (in words) / effect on plcA'Z activation at low cell density (in words): n = 9; for IC50: late-exponential phase (OD600 1.8 ± 0.1), competition with endogenous PapR, mean ± SEM, SEM, read-out: IC50, lacZ-based reporter assay; for effect on plcA'Z activation / PlcR regulon activity after 24 h (in words) / effect on plcA'Z activation at low cell density (in words): 10 μM peptide; for effect on plcA'Z activation / PlcR regulon activity after 24 h (in words): added at OD600 0.1 ± 0.03, harvested after 24 h; for effect on plcA'Z activation at low cell density (in words): added at OD600 0.1 ± 0.03, quantified after 2.5 h; for class of inhibitory activity throughout the competition studies: plcA'lacZ, summary of the competition studies
Method: Bacterial strains used in this study: B. thuringiensis 407 Cry ^- plcA′Z (Bt A’Z) and the PapR null-mutant 407 Cry ^- ΔpapR plcA’Z (Bt ΔpapR A’Z) strains, containing a transcriptional fusion between the promoter of plcA and the lacZ reporter gene (as described previously; [Gominet et al., 2001]; [Slamti and Lereclus, 2002]); B. cereus strain ATCC 14579 ([Ivanova et al., 2003]). Unless otherwise noted, cells were grown in modified LB medium (16 g/L tryptone, 8 g/L yeast extract, 5 g/L NaCl) at 37°C and stored at −80°C in LB containing 25% glycerol. Kanamycin (200 μg/mL) was used for the selection of B. thuringiensis.
Bt A’Z cells were grown overnight in LB medium. The cells were diluted 10^–3 in modified LB to a final volume of 1 L and incubated at 37°C with shaking (200 rpm) until the end of the lag or late-exponential of bacterial growth (OD600 0.1 ± 0.03; 1.8 ± 0.1, respectively). Different concentrations of synthetic peptides were added to 2 ml aliquots of culture and incubated for various times (1–24 h) before centrifugation (Eppendorf centrifuge R5810, 4000 rpm for 5 min) and quantification of β-galactosidase activity.
β-galactosidase activity was measured as described previously ([Yang et al., 2017]), with minor modifications. Briefly, 200 μL aliquots from 2 ml treated cultures were added in triplicate to a clear 96-well microtiter plate, and then OD600 was measured and β-galactosidase activity was assayed. The final results were reported as percentage of activation, which is the ratio between the Miller units obtained after addition of the PapR7 analogs. In Bt ΔpapR A’Z strain, the plcA promoter activity was very low and considered as a baseline. In Bt A’Z strain, the untreated bacteria were considered as 100% of activation and the results were normalized accordingly. Each assay was repeated at least three times.

B. cereus ATCC 14579 = assay type: cell-based, Bacillus cereus; conditions: n = 9; for IC50: supernatant of B. cereus ATCC 14579 cultures treated at OD600 0.1 ± 0.03 for 2.5 h, 1% human red blood cells, 30 min, 37°C, absorbance at 420 nm, mean ± SEM, SEM, read-out: IC50, hemolytic assay; for reduction of hemolytic activity: 10 μM peptide, B. cereus ATCC 14579 treated at OD600 0.1 ± 0.03, human red blood cells, normalized to untreated
Method: Bt A’Z or B. cereus ATCC 14579 cells were grown overnight in LB medium. The cells were diluted 10^–3 in modified LB to a final volume of 1 liter and incubated at 37°C with shaking (200 rpm) until the end of the lag phase of bacterial growth (OD600 0.1 ± 0.03). Different concentrations of synthetic peptides were added to 2 ml aliquots of culture and incubated for 2.5 h before centrifugation (Eppendorf centrifuge R5810, 4000 rpm for 5 min), separation and filtration (0.2 μm filter) of the supernatants of the treated cultures. Analyses of hemolytic activity were conducted as previously described using human red blood cells ([Tal-Gan et al., 2013b]; [Lobel et al., 2015]). Bacterial supernatants were serially diluted in Tris-buffered saline (pH 7.2, 10 mM Tris–HCl, 155 mM NaCl) with 1% human red blood cells (hRBC) suspension and were incubated for 30 min at 37°C. Hemolytic activities were measured by monitoring the absorbance at 420 nm.

[2] = target: PlcR of B. cereus ATCC 14579 (B. cereus (endogenous in strain ATCC 14579))
[3] = target: PlcR of B. thuringiensis 407 Cry- (B. thuringiensis (endogenous in strain 407 Cry- plcA'Z))
[4] = target: PlcR of B. cereus ATCC 14579 (B. cereus (endogenous in strain ATCC 14579)); remark: listed apart in the source
[5] = target: PlcR of B. thuringiensis 407 Cry- (B. thuringiensis (endogenous in strain 407 Cry- plcA'Z)); remark: listed apart in the source
[6] = target: PlcR of B. cereus ATCC 14579 (B. cereus (endogenous in strain ATCC 14579)); remark: listed apart in the source
[7] = target: PlcR of B. thuringiensis 407 Cry- (B. thuringiensis (endogenous in strain 407 Cry- plcA'Z)); remark: listed apart in the source

CC(C)C[C@H](NC(=O)[C@H](CC(=O)O)NC(=O)[C@H](C)N)C(=O)N1CCC[C@H]1C(=O)N[C@@H](Cc1ccccc1)C(=O)N[C@H](CCC(=O)O)C(=O)N[C@@H](Cc1ccccc1)C(N)=O [PapR7-dE6, reference compound] (H-ADLPF[dE]F-NH2; N-terminus assumed)
reduction of plcA'Z activity [1]: 65%
IC50 [1]: 977 ± 42 nM
IC50 (B. cereus ATCC 14579): 1050 ± 89 nM

CC(C)C[C@H](NC(=O)[C@H](CC(=O)O)NC(=O)[C@H](C)N)C(=O)N1CCC[C@H]1C(=O)N[C@@H](Cc1ccccc1)C(=O)N[C@H](CCC(=O)O)C(=O)N[C@@H](C)C(N)=O [PapR7-dE6:F7A] (H-ADLPF[dE]A-NH2; N-terminus assumed)
reduction of plcA'Z activity [1]: 65%
effect on plcA'Z activation / PlcR regulon activity after 24 h (in words) [1]: blocked plcA’Z activation; also recorded: blocked the PlcR regulon activity
effect on plcA'Z activation at low cell density (in words) [1]: blocked plcA’Z activation
IC50 [1]: 2570 ± 203 nM
class of inhibitory activity throughout the competition studies [1]: very potent inhibitors
IC50 (B. cereus ATCC 14579): 2500 ± 212 nM

CC(C)C[C@H](NC(=O)[C@H](CC(=O)O)NC(=O)[C@H](C)N)C(=O)N1CCC[C@H]1C(=O)N[C@@H](Cc1ccccc1)C(=O)N[C@H](CCC(=O)O)C(=O)N[C@H](Cc1ccccc1)C(N)=O [PapR7-dE6:dF7] (H-ADLPF[dE][dF]-NH2; N-terminus assumed)
reduction of plcA'Z activity [1]: 71%
effect on plcA'Z activation / PlcR regulon activity after 24 h (in words) [1]: blocked plcA’Z activation; also recorded: blocked the PlcR regulon activity
effect on plcA'Z activation at low cell density (in words) [1]: blocked plcA’Z activation
IC50 [1]: 1680 ± 170 nM
class of inhibitory activity throughout the competition studies [1]: very potent inhibitors
IC50 (B. cereus ATCC 14579): 1380 ± 117 nM

CC(C)C[C@H](NC(=O)[C@H](CC(=O)O)NC(=O)[C@H](C)N)C(=O)N1CCC[C@H]1C(=O)N[C@@H](Cc1ccccc1)C(=O)N[C@@H](CCC(=O)O)C(=O)N[C@H](Cc1ccccc1)C(N)=O [PapR7-dF7, reference compound] (H-ADLPFE[dF]-NH2; N-terminus assumed)
reduction of plcA'Z activity [1]: 63%
IC50 [1]: 1220 ± 72 nM
IC50 (B. cereus ATCC 14579): 3040 ± 206 nM

ADLAFEA [PapR7-P4A:F7A, second-generation PapR7-derived peptide ADLAFEA]
reduction of plcA'Z activity [1]: approximately 40%
effect on plcA'Z activation at low cell density (in words) [1]: drastic reduction in plcA’Z activity
class of inhibitory activity throughout the competition studies [1]: median to high inhibitory activities
reduction of hemolytic activity (B. cereus ATCC 14579): ~60%

ADLAFEdF [PapR7-P4A:dF7, second-generation PapR7-derived peptide ADLAFEdF]
reduction of plcA'Z activity [1]: approximately 40%
effect on plcA'Z activation at low cell density (in words) [1]: drastic reduction in plcA’Z activity
class of inhibitory activity throughout the competition studies [1]: median to high inhibitory activities
reduction of hemolytic activity (B. cereus ATCC 14579): approximately 83%

PapR7-E6A:F7A (peptide)
reduction of the hemolytic activity (human red blood cells) of supernatants of B. cereus ATCC 14579 cultures treated with 10 μM peptide; the pair that is blocked: native PapR with PlcR [2]: 60%
reduction of plcA'Z (β-galactosidase) activity in Bt A'Z cells, 2.5 μM peptide added at late-exponential phase; the pair that is blocked: endogenous PapR with PlcR [3]: 40%

PapR7-E6A:dF7 (peptide)
inhibition of the hemolytic activity (human red blood cells) of supernatants of B. cereus ATCC 14579 cultures treated with 10 μM peptide; the pair that is blocked: native PapR with PlcR [4]: 83%
reduction of plcA'Z (β-galactosidase) activity in Bt A'Z cells, 2.5 μM peptide added at late-exponential phase; the pair that is blocked: endogenous PapR with PlcR [3]: 40%

PapR7-F7A (peptide)
IC50 of inhibition of plcA'Z (β-galactosidase) activity in Bt A'Z cells, lacZ-based reporter assay; the pair that is blocked: endogenous PapR with PlcR [5]: 1.68 µM
IC50 of inhibition of the hemolytic activity (human red blood cells) of supernatants of treated B. cereus ATCC 14579 cultures; the pair that is blocked: native PapR with PlcR [6]: 2.73 µM
reduction of plcA'Z (β-galactosidase) activity in Bt A'Z cells, 2.5 μM peptide added at late-exponential phase; the pair that is blocked: endogenous PapR with PlcR [3]: 70%

PapR7-P4A (peptide)
IC50 of inhibition of the hemolytic activity (human red blood cells) of supernatants of treated B. cereus ATCC 14579 cultures; the pair that is blocked: native PapR with PlcR [6]: 4.39 µM

PapR7-P4A:F7A (peptide)
reduction of the hemolytic activity (human red blood cells) of supernatants of B. cereus ATCC 14579 cultures treated with 10 μM peptide; the pair that is blocked: native PapR with PlcR [2]: 60%
reduction of plcA'Z (β-galactosidase) activity in Bt A'Z cells, 2.5 μM peptide added at late-exponential phase; the pair that is blocked: endogenous PapR with PlcR [3]: 40%

PapR7-P4A:dE6 (peptide)
reduction of plcA'Z (β-galactosidase) activity in Bt A'Z cells, 2.5 μM peptide added at late-exponential phase; the pair that is blocked: endogenous PapR with PlcR [3]: 40%

PapR7-P4A:dE6:F7A (peptide)
reduction of plcA'Z (β-galactosidase) activity in Bt A'Z cells, 10 μM peptide added at end of lag phase (OD600 0.1); the pair that is blocked: endogenous PapR with PlcR [7]: 75%
IC50 of inhibition of the hemolytic activity (human red blood cells) of supernatants of treated B. cereus ATCC 14579 cultures; the pair that is blocked: native PapR with PlcR [6]: 1.99 µM
reduction of plcA'Z (β-galactosidase) activity in Bt A'Z cells, 2.5 μM peptide added at late-exponential phase; the pair that is blocked: endogenous PapR with PlcR [3]: 40%

PapR7-P4A:dE6:dF7 (peptide)
reduction of plcA'Z (β-galactosidase) activity in Bt A'Z cells, 10 μM peptide added at end of lag phase (OD600 0.1); the pair that is blocked: endogenous PapR with PlcR [7]: 75%
IC50 of inhibition of the hemolytic activity (human red blood cells) of supernatants of treated B. cereus ATCC 14579 cultures; the pair that is blocked: native PapR with PlcR [6]: 2.14 µM
reduction of plcA'Z (β-galactosidase) activity in Bt A'Z cells, 2.5 μM peptide added at late-exponential phase; the pair that is blocked: endogenous PapR with PlcR [3]: 40%

PapR7-P4A:dF7 (peptide)
inhibition of the hemolytic activity (human red blood cells) of supernatants of B. cereus ATCC 14579 cultures treated with 10 μM peptide; the pair that is blocked: native PapR with PlcR [4]: 83%
reduction of plcA'Z (β-galactosidase) activity in Bt A'Z cells, 2.5 μM peptide added at late-exponential phase; the pair that is blocked: endogenous PapR with PlcR [3]: 40%

PapR7-dE6 (peptide)
IC50 of inhibition of plcA'Z (β-galactosidase) activity in Bt A'Z cells, lacZ-based reporter assay; the pair that is blocked: endogenous PapR with PlcR [5]: 0.977 µM
IC50 of inhibition of the hemolytic activity (human red blood cells) of supernatants of treated B. cereus ATCC 14579 cultures; the pair that is blocked: native PapR with PlcR [6]: 1.05 µM
reduction of plcA'Z (β-galactosidase) activity in Bt A'Z cells, 2.5 μM peptide added at late-exponential phase; the pair that is blocked: endogenous PapR with PlcR [3]: 65%

PapR7-dE6:F7A (peptide)
IC50 of inhibition of plcA'Z (β-galactosidase) activity in Bt A'Z cells, lacZ-based reporter assay, late-exponential phase; the pair that is blocked: endogenous PapR with PlcR [5]: 2.57 µM
IC50 of inhibition of the hemolytic activity (human red blood cells) of supernatants of treated B. cereus ATCC 14579 cultures; the pair that is blocked: native PapR with PlcR [6]: 2.5 µM
reduction of plcA'Z (β-galactosidase) activity in Bt A'Z cells, 2.5 μM peptide added at late-exponential phase; the pair that is blocked: endogenous PapR with PlcR [3]: 65%

PapR7-dE6:dF7 (peptide)
IC50 of inhibition of plcA'Z (β-galactosidase) activity in Bt A'Z cells, lacZ-based reporter assay, late-exponential phase; the pair that is blocked: endogenous PapR with PlcR [5]: 1.68 µM
IC50 of inhibition of the hemolytic activity (human red blood cells) of supernatants of treated B. cereus ATCC 14579 cultures; the pair that is blocked: native PapR with PlcR [6]: 1.38 µM
reduction of plcA'Z (β-galactosidase) activity in Bt A'Z cells, 2.5 μM peptide added at late-exponential phase; the pair that is blocked: endogenous PapR with PlcR [3]: 71%

PapR7-dF7 (peptide)
IC50 of inhibition of plcA'Z (β-galactosidase) activity in Bt A'Z cells, lacZ-based reporter assay; the pair that is blocked: endogenous PapR with PlcR [5]: 1.22 µM
IC50 of inhibition of the hemolytic activity (human red blood cells) of supernatants of treated B. cereus ATCC 14579 cultures; the pair that is blocked: native PapR with PlcR [6]: 3.04 µM
reduction of plcA'Z (β-galactosidase) activity in Bt A'Z cells, 2.5 μM peptide added at late-exponential phase; the pair that is blocked: endogenous PapR with PlcR [3]: 63%
